Results on 41 sequences are retold here after the Immune Epitope Database (IEDB).

Bounds are passed on as bounds.

Some targets named below: HLA-A*68:01; HLA-A*03:01; HLA-A*31:01; HLA-A*33:01; HLA-A*11:01.
What all share (assay): IEDB peptide-MHC binding, purified MHC/competitive/radioactivity; filed as Kd, often an IC50 or EC50 that approximates it; ≥ and ≤ were set here for values at or beyond the usual limits of such assays
Where [1] appears, read: source organism: Vaccinia virus WR.
The mark [2] stands for this setting: source organism: SARS coronavirus Tor2.
The mark [3] stands for this setting: source organism: Dengue virus 2 Jamaica/1409/1983.
[4] abbreviates: source organism: Dengue virus 4 Philippines/H241/1956.
The mark [5] stands for this setting: source organism: Dengue virus 4 Dominica/814669/1981.
The mark [6] stands for this setting: source organism: Mammarenavirus guanaritoense.
The mark [7] stands for this setting: source organism: Dengue virus 3 Martinique/1243/1999.
The mark [8] stands for this setting: source organism: Dengue virus 1 Singapore/S275/1990.
[9] abbreviates: source organism: Dengue virus 1 Brazil/97-11/1997.
Where [10] appears, read: source organism: Murray valley encephalitis virus (strain MVE-1-51).

As a reminder, the Kd is the concentration at which binding is half-saturated. As to LFVKKMLPK, the Kd with HLA-A*68:01 (setting [1]) was 0.47 µM; with HLA-A*03:01 (setting [1]) it was 1.51 µM; with HLA-A*31:01 (setting [1]) it was 1.44 µM; with HLA-A*33:01 (setting [1]), not below 33.2 µM; with HLA-A*11:01 (setting [1]), 0.239 µM.

Take AVHECFVKR: the equilibrium dissociation constant (Kd) with HLA-A*68:01 (setting [2]) was found to be 0.0796 µM; with HLA-A*03:01 (setting [2]), 3.32 µM; with HLA-A*31:01 (setting [2]) it was 0.039 µM; in the assay with HLA-A*33:01 (setting [2]) it was 1.27 µM; with HLA-A*11:01 (setting [2]), 0.44 µM.

As for LFCLLNRYFR, the Kd with HLA-A*68:01 (setting [2]) was 0.251 µM; in the assay with HLA-A*03:01 (setting [2]), 1.24 µM; with HLA-A*31:01 (setting [2]), 0.0129 µM; in the assay with HLA-A*33:01 (setting [2]), 0.0361 µM; in the assay with HLA-A*11:01 (setting [2]) it was 0.55 µM.

Take SQASSRSSSR: the Kd amounted to 0.4 µM with HLA-A*68:01 (setting [2]); 7.97 µM in the assay with HLA-A*03:01 (setting [2]); 0.47 µM with HLA-A*31:01 (setting [2]); 1.32 µM with HLA-A*33:01 (setting [2]); 1.53 µM in the assay with HLA-A*11:01 (setting [2]).

Take TFIMLEGETK: the Kd worked out at 0.176 µM with HLA-A*68:01 (setting [1]); 0.0388 µM with HLA-A*03:01 (setting [1]); 0.816 µM in the assay with HLA-A*31:01 (setting [1]); 3.42 µM with HLA-A*33:01 (setting [1]); 0.0118 µM with HLA-A*11:01 (setting [1]).

Turning to ILHAYCGIK, the Kd with HLA-A*68:01 (setting [1]) is 1.86 µM; in the assay with HLA-A*03:01 (setting [1]), 0.0328 µM; with HLA-A*31:01 (setting [1]), 2.62 µM; in the assay with HLA-A*33:01 (setting [1]), not below 33.8 µM; with HLA-A*11:01 (setting [1]), 0.582 µM.

YLTMKAIEK: the Kd was found to be 1.01 µM with HLA-A*68:01 (setting [1]); 0.384 µM with HLA-A*03:01 (setting [1]); 11.4 µM with HLA-A*31:01 (setting [1]); 9.83 µM with HLA-A*33:01 (setting [1]); 0.867 µM in the assay with HLA-A*11:01 (setting [1]).

TIGTTHFQR: the Kd with HLA-A*68:01 (setting [3]) was 0.0184 µM; with HLA-A*31:01 (setting [3]) it was 0.0143 µM.

On to EGAWKHAQR, for which, in the assay with HLA-A*68:01 (setting [4]), the Kd is 0.115 µM.

Turning to IGKMFESTYR, the Kd with HLA-A*33:01 (setting [5]) came out at 0.176 µM.

Take VTEFRRTAIH: the Kd in the assay with HLA-A*68:01 (setting [6]) is 15.3 µM; with HLA-A*03:01 (setting [6]), not below 33.1 µM; with HLA-A*31:01 (setting [6]), 10.7 µM; in the assay with HLA-A*33:01 (setting [6]), 5.85 µM.

As for AIWYMWLGAR, the Kd with HLA-A*31:01 (setting [7]) worked out at 0.0423 µM; with HLA-A*33:01 (setting [7]), 0.0573 µM.

With KAKIFTPEAR, the Kd with HLA-A*31:01 (setting [5]) is 0.00285 µM.

For MANEMGFLEK, in the assay with HLA-A*11:01 (setting [3]), the Kd was 0.519 µM.

As to VASAGISYK, the Kd with HLA-A*03:01 (setting [4]) amounted to 0.0284 µM; with HLA-A*11:01 (setting [4]), 0.0374 µM.

With SSMINGVVK, the Kd with HLA-A*11:01 (setting [7]) came to 0.0129 µM.

Consider MLVAPSYGMR, for which the Kd in the assay with HLA-A*68:01 (setting [4]) is 0.00759 µM.

For the sequence MILLTMKNK, the Kd with HLA-A*03:01 (setting [7]) stood at 0.0497 µM; in the assay with HLA-A*11:01 (setting [7]) it was 1.2 µM.

Turning to TTAKEVALLR, in the assay with HLA-A*68:01 (setting [4]), the Kd turned out to be 0.0733 µM.

For the sequence ALAFHLTSR, the Kd with HLA-A*03:01 (setting [7]) came to 0.0349 µM.

As to EMGANFKAER, in the assay with HLA-A*33:01 (setting [3]), the Kd is 0.0155 µM.

With MSAAVKDER, the Kd with HLA-A*68:01 (setting [7]) worked out at 0.0743 µM; with HLA-A*31:01 (setting [7]), 0.0324 µM.

With GLSSRATWAK, the Kd in the assay with HLA-A*03:01 (setting [4]) stood at 0.0352 µM; with HLA-A*11:01 (setting [4]), 0.164 µM.

Consider GLAMGIMILK, for which the Kd with HLA-A*03:01 (setting [8]) came to 0.0207 µM; in the assay with HLA-A*11:01 (setting [8]) it was 0.0698 µM.

For the sequence TLFVEECLR, the results for the Kd with HLA-A*68:01 (setting [4]) and in the assay with HLA-A*33:01 (setting [4]) were 0.0301 µM and 0.0863 µM, respectively.

As for GSQLAKRFSR, in the assay with HLA-A*31:01 (source organism: Dengue virus 3 Singapore/8120/1995), the Kd was 0.0544 µM.

Regarding WTLMYFHRR, the Kd in the assay with HLA-A*31:01 (setting [3]) turned out to be 0.00149 µM; with HLA-A*33:01 (setting [3]), 0.00656 µM.

As to NMISRMLINR, the results for the Kd with HLA-A*68:01 (setting [3]), with HLA-A*31:01 (setting [3]) and in the assay with HLA-A*33:01 (setting [3]) were 0.137 µM, 0.018 µM and 0.00706 µM, respectively.

EATARGARR: the values for the Kd in the assay with HLA-A*68:01 (setting [9]) and in the assay with HLA-A*33:01 (setting [9]) were 0.0125 µM and 0.0367 µM, respectively.

As to RWLWGFLSR, the Kd with HLA-A*31:01 (setting [8]) amounted to 0.00145 µM.

On to ATNNVFRLK, for which the Kd with HLA-A*68:01 (setting [2]) was determined as 0.0116 µM; with HLA-A*31:01 (setting [2]) it was 0.00257 µM; with HLA-A*33:01 (setting [2]) it was 6.41 µM.

With LMCHATFTMR, the Kd is 0.00731 µM in the assay with HLA-A*31:01 (setting [3]) and 0.089 µM with HLA-A*33:01 (setting [3]).

Regarding LISGKGIGK, the Kd in the assay with HLA-A*03:01 (setting [7]) is 0.722 µM.

Consider GVFTTNIWLK, for which the Kd in the assay with HLA-A*68:01 (setting [3]) turned out to be 0.00145 µM; with HLA-A*03:01 (setting [3]) it was 0.0293 µM; with HLA-A*11:01 (setting [3]), 0.0407 µM.

MVTFKVPHAK: the Kd came out at 0.133 µM with HLA-A*68:01 (setting [4]), 0.0803 µM with HLA-A*03:01 (setting [4]) and 0.251 µM in the assay with HLA-A*11:01 (setting [4]).

On to VQTKPGIFK, for which the Kd was 0.274 µM with HLA-A*03:01 (setting [10]) and 0.435 µM with HLA-A*11:01 (setting [10]).

As to MPSMKRFRR, the Kd with HLA-A*33:01 (setting [3]) was found to be 0.00672 µM.

On to ILARWGSFKK, for which the Kd with HLA-A*03:01 (setting [8]) worked out at 0.00969 µM.

On to DTRTPRAKR, for which the Kd with HLA-A*33:01 (setting [9]) is 0.0298 µM.

KVTEVRGYTK: the Kd in the assay with HLA-A*11:01 (setting [7]) was determined as 0.201 µM.

With SLRTTTVSGK, the Kd with HLA-A*03:01 (setting [7]) amounted to 0.00578 µM.
